From the supplement of paper PMC10126150
± gives the standard deviation of the averaged measurements.

Test system: ATP
Test: switch fluorescence ratio, 500 uM ATP over buffer (Cy3 cluster intensity, sum of 5 cycles each) (fold (ratio)); higher = stronger signal-on switching upon ATP binding; sequences stand for … in TCGTCGGCAGCGTCAGATGTGTATAAGAGACAGTTTTTTTTTTTTTTTTTTTTTTTTT…TC
Details: aptamer strand: ATP DNA aptamer (quencher-CACCTGGGGGAGTATTGCGGAGGAAGG + anchor), 100 nM annealed; ATP concentration: 500 uM
How it was run: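 After annealing to 100 nM quencher-labelled ATP aptamer, Cy3-labelled switching-strand clusters on a modified Illumina MiSeq flow-cell were imaged in selection buffer. A second image followed after 15 min with 500 uM ATP at 22 °C, and five such buffer/ATP cycles were done, each separated by NaOH stripping and re-annealing. The fluorescence ratio, averaged per switch-domain sequence, is summed target-cycle over summed buffer-cycle Cy3 intensity per cluster, with clusters outside 100-1000 RFU excluded.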
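Further: ATP exposure 15 min at 22 °C before imaging.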

| Sequence | switch fluorescence ratio |
| --- | --- |
| GCTCATTGGC | 0.992 ± 0.027 |
| GCTCCTCGCT | 1.23 ± 0.081 |
| GCTCCTTAGG | 1.12 ± 0.048 |
| GCTCGACGGC | 1.017 ± 0.0018 |
| GCTCGAGGGT | 1 ± 0.03 |
| GCTCGAGTGG | 1.03 ± 0.053 |
| GCTCGGTTTG | 0.97 ± 0.045 |
| GCTCGTACGA | 1.03 ± 0.027 |
| GCTCGTTATA | 1.02 ± 0.019 |
| GCTCGTTTAG | 1.01 ± 0.02 |
| GCTCTACGGT | 1.013 ± 0.0099 |
| GCTCTCCTGT | 1.02 ± 0.023 |
| GCTGACGGGT | 0.976 ± 0.018 |
| GCTGACTTGT | 0.977 ± 0.016 |
| GCTGATTGTG | 1 ± 0.023 |
| GCTGATTTCG | 1 ± 0.029 |
| GCTGCCGGGG | 0.971 ± 0.046 |
| GCTGCTTAGG | 0.974 ± 0.018 |
| GCTGGAACCG | 1.08 ± 0.022 |
| GCTGGAGGTG | 1.03 ± 0.039 |
| GCTGGCGGAT | 1.01 ± 0.041 |
| GCTGGCTCTT | 1.01 ± 0.014 |
| GCTGGGACAG | 0.999 ± 0.032 |

| Sequence | switch fluorescence ratio |
| --- | --- |
| GCTGGGAGAG | 0.989 ± 0.042 |
| GCTGGGATTA | 0.984 ± 0.012 |
| GCTGGGCACA | 0.967 ± 0.03 |
| GCTGGGGACG | 0.938 ± 0.084 |
| GCTGGGGGGC | 0.988 ± 0.033 |
| GCTGGGGTAA | 1.02 ± 0.021 |
| GCTGGGGTGC | 1 ± 0.09 |
| GCTGGGTAAT | 1.02 ± 0.044 |
| GCTGGGTCGA | 1.03 ± 0.01 |
| GCTGGGTGAT | 1.018 ± 0.0069 |
| GCTGGTAAAG | 0.972 ± 0.017 |
| GCTGGTAAGC | 0.9696 ± 0.0029 |
| GCTGGTTAGT | 1 ± 0.014 |
| GCTGTAGGAG | 0.9843 ± 0.0072 |
| GCTGTAGGCG | 0.988 ± 0.015 |
| GCTGTATGCA | 0.976 ± 0.012 |
| GCTGTGAGGT | 0.979 ± 0.0018 |
| GCTGTGCGCA | 1.02 ± 0.019 |
| GCTGTGTAGA | 1.073 ± 0.0021 |
| GCTGTGTTGG | 1.02 ± 0.013 |
| GCTGTTCACG | 1.01 ± 0.014 |
| GCTGTTGGCA | 1.01 ± 0.025 |
| GCTGTTTCAG | 0.986 ± 0.016 |

| Sequence | switch fluorescence ratio |
| --- | --- |
| GCTGTTTGGG | 0.997 ± 0.014 |
| GCTGTTTTCA | 0.984 ± 0.048 |
| GCTTAACGCT | 0.999 ± 0.019 |
| GCTTAACGTA | 1.05 ± 0.044 |
| GCTTAACTTC | 0.982 ± 0.039 |
| GCTTAAGGGG | 0.989 ± 0.029 |
| GCTTACCCCC | 2.09 ± 0.13 |
| GCTTACTGTA | 1.15 ± 0.024 |
| GCTTAGGTCA | 0.982 ± 0.034 |
| GCTTAGTATA | 1.01 ± 0.019 |
| GCTTAGTGGT | 0.981 ± 0.025 |
| GCTTATGTTC | 1.015 ± 0.0097 |
| GCTTATTCGG | 0.959 ± 0.03 |
| GCTTCAGCAA | 1.03 ± 0.055 |
| GCTTCAGTGA | 1.02 ± 0.019 |
| GCTTCCAGTT | 0.995 ± 0.035 |
| GCTTCCGAGA | 1.87 ± 0.05 |
| GCTTCGAAGG | 0.993 ± 0.031 |
| GCTTCGGGTT | 0.976 ± 0.028 |
| GCTTCTACTG | 0.988 ± 0.034 |
| GCTTCTAGGT | 0.9976 ± 0.0043 |
| GCTTGAGGAG | 1 ± 0.009 |
| GCTTGAGTTC | 1.03 ± 0.025 |

| Sequence | switch fluorescence ratio |
| --- | --- |
| GCTTGAGTTG | 1.0068 ± 0.0004 |
| GCTTGATGTG | 0.986 ± 0.015 |
| GCTTGCTATG | 0.976 ± 0.014 |
| GCTTGGGAAC | 0.993 ± 0.028 |
| GCTTGGGGGG | 1.02 ± 0.029 |
| GCTTGGGGTG | 1.02 ± 0.024 |
| GCTTGGGTAT | 1.02 ± 0.062 |
| GCTTGGTTTT | 1.01 ± 0.013 |
| GCTTGTCGGT | 1.022 ± 0.0096 |
| GCTTGTCTTC | 1.005 ± 0.0014 |
| GCTTGTGGAG | 1.02 ± 0.013 |
| GCTTGTTCGG | 1.04 ± 0.011 |
| GCTTTAGTAT | 0.9963 ± 0.0058 |
| GCTTTATGGG | 0.98 ± 0.027 |
| GCTTTCATAT | 0.9996 ± 0.0099 |
| GCTTTCGATC | 1.05 ± 0.033 |
| GCTTTGATGT | 0.9839 ± 0.0032 |
| GCTTTGGATG | 0.968 ± 0.05 |
| GCTTTGGGGC | 1.01 ± 0.02 |
| GCTTTGTATA | 1 ± 0.021 |
| GCTTTGTGAT | 1.01 ± 0.066 |
| GCTTTTAGCG | 0.989 ± 0.055 |
| GCTTTTGAAG | 0.993 ± 0.019 |

| Sequence | switch fluorescence ratio |
| --- | --- |
| GCTTTTGGCA | 1.019 ± 0.0057 |
| GCTTTTGTAT | 0.991 ± 0.025 |
| GGAAAAATTG | 1.02 ± 0.021 |
| GGAAAAGGGT | 0.998 ± 0.04 |
| GGAAAATACA | 0.985 ± 0.025 |
| GGAAACAGTT | 1 ± 0.032 |
| GGAAACTTAG | 1.019 ± 0.0089 |
| GGAAAGGGAG | 0.97 ± 0.02 |
| GGAAAGGGGC | 0.95 ± 0.053 |
| GGAAAGTCGT | 1.03 ± 0.018 |
| GGAAATATTT | 0.98 ± 0.016 |
| GGAAATGGGC | 0.97 ± 0.042 |
| GGAAATGTTT | 1.01 ± 0.026 |
| GGAAATTGTG | 1.04 ± 0.052 |
| GGAACAGCGG | 1.001 ± 0.0016 |
| GGAACGAAGA | 0.98 ± 0.028 |
| GGAACGAGAG | 0.989 ± 0.03 |
| GGAACGGGGC | 0.961 ± 0.06 |
| GGAACGGGTG | 1.09 ± 0.17 |
| GGAACGTGTT | 1.004 ± 0.0097 |
| GGAACTCATG | 0.959 ± 0.046 |
| GGAACTTAAG | 0.9794 ± 0.0043 |
| GGAACTTGGT | 0.928 ± 0.087 |

| Sequence | switch fluorescence ratio |
| --- | --- |
| GGAAGAGGAA | 0.988 ± 0.025 |
| GGAAGAGGTG | 1.09 ± 0.022 |
| GGAAGATTTG | 1.06 ± 0.055 |
| GGAAGCGAAC | 1.47 ± 0.067 |
| GGAAGCGGGT | 0.994 ± 0.042 |
| GGAAGGAGTG | 0.987 ± 0.036 |
| GGAAGGGCTT | 1 ± 0.034 |
| GGAAGGGGAA | 1.01 ± 0.028 |
| GGAAGGGGAT | 0.9986 ± 0.0061 |
| GGAAGGTA | 0.997 ± 0.03 |
| GGAAGTAGGA | 0.98839 ± 0.00067 |
| GGAAGTAGGT | 0.988 ± 0.02 |
| GGAAGTCTCA | 0.975 ± 0.012 |
| GGAAGTGGTA | 0.976 ± 0.021 |
| GGAAGTTGTA | 1.07 ± 0.13 |
| GGAATAGGGA | 0.982 ± 0.052 |
| GGAATAGTGC | 1.01 ± 0.052 |
| GGAATATAAC | 1 ± 0.045 |
| GGAATATGC | 1.13 ± 0.1 |
| GGAATCAAAC | 0.996 ± 0.0094 |
| GGAATCTGCC | 1.14 ± 0.024 |
| GGAATGACGG | 1.012 ± 0.0024 |
| GGAATGGGTT | 1.01 ± 0.023 |

| Sequence | switch fluorescence ratio |
| --- | --- |
| GGAATGTGCA | 0.987 ± 0.023 |
| GGAATGTGGT | 1.027 ± 0.002 |
| GGAATTAGTG | 0.995 ± 0.025 |
| GGAATTGAGT | 1.02 ± 0.021 |
| GGAATTGGGG | 1.01 ± 0.027 |
| GGACAAAAAC | 1.02 ± 0.013 |
| GGACAAAAGA | 0.984 ± 0.011 |
| GGACACTGGT | 1.06 ± 0.041 |
| GGACAGGCGC | 1.006 ± 0.0024 |
| GGACATGGCG | 0.943 ± 0.019 |
| GGACATTCGC | 1.04 ± 0.013 |
| GGACCGGACG | 1.106 ± 0.0093 |
| GGACCTGCTG | 0.969 ± 0.0033 |
| GGACGAATGG | 1.02 ± 0.013 |
| GGACGATGGG | 0.995 ± 0.045 |
| GGACGGGGAT | 1 ± 0.015 |
| GGACGGGTGT | 0.996 ± 0.011 |
| GGACGGGTTT | 1 ± 0.031 |
| GGACGTAGTA | 1.006 ± 0.0071 |
